For the experiment, the target named is Cyanophycin synthetase 1 (CphA1) from Tatumella morbirosei DSM 23827 (Tatumella morbirosei DSM 23827). Briefly: SEC.

What is called stoichiometry N is a count of units in the complex or per binding partner.

In the case of “Cyanophycin synthetase 1 (CphA1) from Tatumella morbirosei DSM 23827 (enzyme)”, the stoichiometry N stood at 4.
